# Reference: paper PMC3045100, “Cell-Penetrating Penta-Peptides (CPP5s): Measurement of Cell Entry and Protein-Transduction Activity” (Pharmaceuticals, 2010)
# B1: Cre: His-tagged recombinant Cre DNA recombinase without TAT or CPP5s (protein, UniProt P06956 1-343, looked up)
# Recombinase cre: MSNLLTVHQNLPALPVDATSDEVRKNLMDMFRDRQAFSEHTWKMLLSVCRSWAAWCKLNNRKWFPAEPEDVRDYLLYLQARGLAVKTIQQHLGQLNMLHRRSGLPRPSDSNAVSLVMRRIRKENVDAGERAKQALAFERTDFDQVRSLMENSDRCQDIRNLAFLGIAYNTLLRIAEIARIRVKDISRTDGGRMLIHIGRTKTLVSTAGVEKALSLGVTKLVERWISVSGVADDPNNYLFCRVRKNGVAAPSATSQLSTRALEGIFEATHRLIYGAKDDSGQRYLAWSGHSARVGAARDMARAGVSIPEIMQAGGWTNVNIVMNYIRNLDSETGAMVRLLEDGD
# modifications: His tag
# notes: His-tagged recombinant Cre DNA recombinase without TAT or CPP5s
# Test system: Tex-loxP-EG cells
# Experiment: Protein transduction: delivery of Cre recombinase read out by GFP expression
# Assay type: cell-based, mouse
# Details: 5 or 10 µM protein, 3 h, GFP measured 48 h after, FACS, three independent experiments
# Procedure: To determine the protein-transduction activity of VPTLK and KLPVM, these peptides were added to the N-terminus of Cre DNA recombinase and the resulting CPP5-Cre fusion proteins were added separately to the culture medium of Tex-loxP-EG cells, which are engineered to express GFP through Cre-dependent excision of a chromosomal lox P site. This method was developed by S. Dowdy’s group to determine the protein-transduction activity of TAT peptide.
# First, cells were cultured for 3 h in serum-free medium in the presence of 5 or 10 µM Cre, TAT-Cre, KLPVM-Cre, or VPTLK-Cre. GFP expression was measured 48 h after the incubation with the CPP-Cre proteins. […]
# Figure 5 Protein-Transduction activity (PTDs) of VPTLK and KLPVM determined by the delivery of Cre recombinase into cells. a. […] The delivery of Cre into Tex-lox P-EG cells was evaluated by GFP expression as previously reported. GFP expression was analyzed 48 h after the incubation of cells with Cre proteins. b and c. […] Mean GFP fluorescence intensity of Tex-loxP-EG cells incubated with 5 or 10 μM Cre recombinant proteins under serum-free conditions. […]
# Tex lox P EG cells were established from thymoma cells of p53-deficient mice, which were genetically engineered to have a lox P site flanking the EGFP gene. […] Expression of GFP was analyzed by fluorescence microscopy and by FACS [11].
molecule,measurement,value
B1,"GFP expression induced by Cre protein, serum-free medium",did not
